Where two headings read alike, the source gives them in different places.

The source of these data is patent publication US6469153 (TRUSTEES OF COLUMBIA UNIVERSITY IN THE CITY OF NEW YORK, dated 2002).

The target of experiment [1] is Envelope protein (TM) on amphotropic N2 virus (amphotropic murine retrovirus). Put plainly: cell-based or functional assay.
For experiment [2] the target is unchanged. Put plainly: cell-based or functional assay. This is another data set of the same source.
Experiment [3] concerns the target Envelope protein (TM in the context of the whole envelope protein) on intact ecotropic N2 virus (Moloney murine leukemia virus) (UniProt P03385). Briefly: cell-based or functional assay.
Experiment [4] deals with T1, Envelope protein (TM in the context of the whole envelope protein) on intact ecotropic N2 virus (Moloney murine leukemia virus, UniProt P03385 34-649, limits assumed).
T1 construct: The target stands on virus particles; also called intact virus; ecotropic virus
T1 sequence (looked up): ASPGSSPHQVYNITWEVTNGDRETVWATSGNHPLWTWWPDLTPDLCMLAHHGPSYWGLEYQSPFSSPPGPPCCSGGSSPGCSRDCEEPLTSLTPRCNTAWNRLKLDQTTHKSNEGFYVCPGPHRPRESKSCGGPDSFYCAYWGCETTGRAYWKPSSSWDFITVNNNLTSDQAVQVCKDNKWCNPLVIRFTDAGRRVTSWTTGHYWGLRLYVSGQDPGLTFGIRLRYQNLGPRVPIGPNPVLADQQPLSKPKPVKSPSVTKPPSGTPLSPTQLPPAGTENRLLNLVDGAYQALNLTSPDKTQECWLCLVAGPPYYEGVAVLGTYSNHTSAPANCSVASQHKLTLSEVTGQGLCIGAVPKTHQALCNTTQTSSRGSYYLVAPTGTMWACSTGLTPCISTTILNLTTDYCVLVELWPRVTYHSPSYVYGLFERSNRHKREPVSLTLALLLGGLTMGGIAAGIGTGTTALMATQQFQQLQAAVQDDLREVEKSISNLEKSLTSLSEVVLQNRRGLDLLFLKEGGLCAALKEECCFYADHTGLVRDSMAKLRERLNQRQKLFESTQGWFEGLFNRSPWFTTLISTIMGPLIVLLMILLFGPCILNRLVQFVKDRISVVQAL
Briefly: depletion of N2 virus by GST-EIP-1 beads; titer of remaining virus. As for the experimental part: EIP-1 to EIP-5 have been examined using this assay to directly measure the binding of EIPs to the intact virus. In this binding assay, virus is mixed with GST-EIP-agarose beads and incubated for 2 hours. After incubation, the mixtures are centrifuged, and the supernatants are used to transduce fresh NIH3T3 cells. After two days, cells are split into G418-containing medium. Ten to twelve days later, colonies are counted. If the virus binds to EIPs, virus is retained on agarose beads leading to a reduction in virus titer in supernatant. […] In control samples, virus was incubated with GST-agarose beads or beads alone, and no change in virus titer was observed (Table 2).
Whether EIP-1 could interact with TM on the native virion particle was tested. GST-EIP-1 beads were incubated with preparations of a virus vector (N2) containing the neoR gene and pelleted, and the titer of the remaining virus was determined to test for depletion of infectivity from the stock. Whereas beads alone, beads containing GST, or beads with control GST fusions had no effect on the titer, beads with GST-EIP-1 could consistently reduce the titer approximately 4-fold.

Experiment [5] has as its target T1, Envelope protein (TM in the context of …). Briefly: cell-based or functional assay.

GST-EIP-1 (from UniProt Q9JI44 1-468) yielded an increase of titer of amphotropic viruses titered on human cells in experiment [1] of 5 to 8 fold.

In experiment [1], GST-EIP-1A (from UniProt Q9JI44 1-468) returned a Fold Increase (amphotropic N2 virus on NIH3T3 cells) of 7 fold; a Neo^r Colonies, 1:1 (amphotropic N2 virus on NIH3T3 cells) of 854 colonies; a Neo^r Colonies, 1:5 (amphotropic N2 virus on NIH3T3 cells) of 136 colonies. In experiment [2], this molecule gave a Fold Increase (amphotropic N2 virus on NIH3T3 cells) of 8 fold; a Neo^r Colonies, Amphotropic N2 virus 5 µl (1:10), NIH3T3 cells of 854 colonies; a Neo^r Colonies, Amphotropic N2 virus 5 µl (1:25), NIH3T3 cells of 136 colonies.

In experiment [3], GST-EIP-1B (from UniProt Q9JI44 1-468) gave a Fold Increase (ecotropic N2 virus on NIH3T3 cells) of 30 fold; a Neo^r Colonies, 1:1 (ecotropic N2 virus on NIH3T3 cells) above 1000 colonies; a Neo^r Colonies, 1:5 (ecotropic N2 virus on NIH3T3 cells) of 353 colonies. In experiment [1], this molecule registered a Fold Increase (amphotropic N2 virus on Hela cells) of 6 fold; a Fold Increase (amphotropic N2 virus on NIH3T3 cells) of 5 fold; a Neo^r Colonies, 1:1 (amphotropic N2 virus on NIH3T3 cells) of 403 colonies; a Neo^r Colonies, 1:5 (amphotropic N2 virus on NIH3T3 cells) of 102 colonies. This molecule also returned a Neo^r Colonies, Amphotropic N2 virus 5 µl (1:25), Hela cells in experiment [1] of 594 colonies. In experiment [2], this molecule displayed a Fold Increase (amphotropic N2 virus on NIH3T3 cells) of 6 fold; a Neo^r Colonies, Amphotropic N2 virus 5 µl (1:10), NIH3T3 cells of 403 colonies; a Neo^r Colonies, Amphotropic N2 virus 5 µl (1:25), NIH3T3 cells of 102 colonies.

In experiment [3], GST-EIP-2 (from UniProt P08515 1-218) registered a CFU/2 ul virus (Neo^r colonies after incubation of virus with purified protein, 1 µg/ml, 37° C., 1 h) of 24 CFU; a CFU/10 ul virus (Neo^r colonies after incubation of virus with purified protein, 1 µg/ml, 37° C., 1 h) of 69 CFU; a Fold Increase (ecotropic N2 virus on NIH3T3 cells) of 1 fold; a Neo^r Colonies, 1:1 (ecotropic N2 virus on NIH3T3 cells) of 69 colonies. In experiment [3], the Neo^r Colonies, 1:5 (ecotropic N2 virus on NIH3T3 cells) was determined as 24 colonies and the Ratio (enhancement of virus infectivity) is 1.

B1: GST-EIP-1 (other)
chain: MATGADVRDILELGGPEGDAASGTISKKDIINPDKKKSKKSSETLTFKRPEGMHREVYALLYSDKKDAPPLLPSDTGRGHRTVKAKLGSKKVRPWKWMPFTNPARKDGAMFFHWRRAAEEGKDYPFARFNKTVQVPVYSEQEYQLYLHDDAWTKAETDHLFDLSRRFDLRFVVIHDRYDHQQFKKRSVEDLKERYYHICAKLANVRAVPGTDLKIPVFDAGHERRRKEQLERLYNRTPEQVAEEEYLLQELRKIEARKKEEKRSQDLQKLITAADTTAEQRRTERKAPKKKLPQKKEAEKPAVPETAGIKFPDFKSAGVTLRSQRMKLPSSVGQKKIKALEQMLLELGVELSPTPTEELVHMFNELRSDLVLLYELKQACANCEYELQMLRHRHEALARAGVLGAPAAAAVGPTPASAEPTVSESGLGLDPTKDTIIDVVGAPLTPNSRKRRESASSSSSVKKAKKP
notes: It was used on glutathione agarose beads or eluted as soluble protein; also called EIP-1 fused with glutathione S-transferase; not shown: glutathione S-transferase (GST)
Take B1: in experiment [4], the “fold reduction of the titer of remaining virus” value is around 4 fold. Also, in experiment [5], the “Ratio (enhancement of virus infectivity)” value turned out to be 30 ratio.
